First the molecules themselves.
B1: Tri6-2 (dsDNA)
DNA 1: CTCAGCAGGATGAACAAGGGGTCTGAAAGGCCTGGC
DNA 2: GCCAGGCCTTTCAGACCCCTTGTTCATCCTGCTGAG
B2: Tri6-3 (dsDNA)
DNA 1: GGCAGGCCTGACAGGAGTGATAAAATGTGAGAAGAG
DNA 2: CTCTTCTCACATTTTATCACTCCTGTCAGGCCTGCC
B3: Tri6-1 (dsDNA)
DNA 1: GGGTCTGAAAGGCCTGGCAGGCCTGACAGGAGTG
DNA 2: CACTCCTGTCAGGCCTGCCAGGCCTTTCAGACCC

The data set deals with Tri6 (Fusarium graminearum (PH-1; NRRL 31084?), UniProt Q9C1A9 1-218). Put plainly: EMSA. Particulars: protein: recombinant; tags: His (pDEST17; Methods EMSA text says Tri6-HA recombinant protein); label: 32P 5' end. For orientation: A gel shift assay detects complexes by their altered migration in electrophoresis.
As to B1, the binding result is on record as “no binding”.
On to B2, for which the binding result is “binds”.
In the case of B3 it was “no binding”.

The record behind these values is PMC3182926.
